The values that follow come from publication PMC3830196, “Calmodulin-like protein AtCML3 mediates dimerization of peroxisomal processing protease AtDEG15 and contributes to normal peroxisome metabolism” (Plant Molecular Biology, 2013).

The test concerns the target T1, AtDEG15 full length (yeast two-hybrid / three-hybrid fusion) (Arabidopsis thaliana, UniProt Q8VZD4 1-709).
T1 construct: AtDEG15, peroxisomal DEG protease of Arabidopsis thaliana (At1g28320); full-length coding region; Cloned both into pBridge and pGAD424; in the Y3H the full length stood in pBridge; also called AtDEG15_pBridge; AtDEG15_pGAD424; source: yeast two-hybrid fusion (S. cerevisiae AH109)
The test is described as follows: two-hybrid; Matchmaker GAL4 system, fusions in pBridge (DNA-binding domain) and pGAD424 (activation domain), S. cerevisiae AH109; HIS3 reporter (growth on His-free medium) and lacZ reporter (beta-galactosidase, Miller units). To be noted: partners not purified.

B1: AtCML3 full length (yeast two-hybrid fusion) (natural protein, Arabidopsis thaliana, UniProt Q9SRR7 1-153, looked up)
chain: MDQAELARIFQMFDRNGDGKITKQELNDSLENLGIYIPDKDLVQMIEKIDLNGDGYVDIEEFGGLYQTIMEERDEEEDMREAFNVFDQNRDGFITVEELRSVLASLGLKQGRTLEDCKRMISKVDVDGDGMVNFKEFKQMMKGGGFAALGSNL
notes: AtCML3, calmodulin-like protein of Arabidopsis thaliana (At3g07490); full-length coding region; Cloned both into pBridge and pGAD424; also called AtCML3_pGAD424; AtCML3_pBridge; source: yeast two-hybrid fusion (S. cerevisiae AH109)
In the case of B1, the “beta-galactosidase activity, fold over the negative controls” value is 20 fold.
